According to patent publication US20240189423A1:

Legend:
[1] = target: tumor-associated calcium signal transducer 2 (TROP2) (UniProt P09758); experiment: cell-based or functional assay
[2] = target: human epidermal growth factor receptor 2 (HER2) (human) (UniProt P04626); experiment: cell-based or functional assay

tumor-associated calcium signal transducer 2 (TROP2), sequence (P09758 27-323 limits assumed): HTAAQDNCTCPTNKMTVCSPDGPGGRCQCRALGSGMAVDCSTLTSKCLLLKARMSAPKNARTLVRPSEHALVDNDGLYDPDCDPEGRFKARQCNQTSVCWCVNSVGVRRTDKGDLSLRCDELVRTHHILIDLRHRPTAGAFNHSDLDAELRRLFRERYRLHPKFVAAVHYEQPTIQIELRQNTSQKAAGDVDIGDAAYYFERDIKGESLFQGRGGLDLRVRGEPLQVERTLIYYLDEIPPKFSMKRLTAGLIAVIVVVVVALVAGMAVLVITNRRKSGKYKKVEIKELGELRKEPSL

Dmax (%), TROP2, MCF7 [1] [%]	Substance	IC50 of cell viability, modified MTT assay, MDA-MB-175VII cells, 5 days [2] [nM]	IC50 of cell viability, modified MTT assay, SK-BR-3 cells, 5 days [2] [nM]
51	CXCL12-Sacituzumab (bispecific antibody)	–	–
–	CXCL12-Trastuzumab (bispecific antibody)	86.8	199
